This note sets out measurements from patent publication US20200340031A1 (YALE UNIVERSITY, published 2020).

Experiment [1] addresses T1, Recombinant human renalase-1 expressed and secreted by pCDNA3-renalase-1-transfected 293T cells (human, UniProt Q5VYX0 18-342, limits assumed).
T1 construct: whole renalase-1 entry named; Present in cell culture supernatant; also called mammalian-expressed recombinant human renalase
The experiment in a line: Western blot; lane 293 s/n taken as supernatant of renalase-expressing 293 cells, the text does not explain the lane. In general terms: Immunoblotting shows a protein as a band on a membrane.

In experiment [2] the target is T1, Recombinant human renalase-1 expressed …. The experiment in a line: Immunoprecipitation from 293T supernatant with Protein G Sepharose, Western blot with biotinylated Ren 28-4. The method, then: All samples were incubated for 2 hours at 4° C. on a shaker. Immunoprecipitates were then washed 3 times with 1 mL RIPA buffer. 50 ul SDS-PAGE sample buffer (Fermentas) was added directly to Protein G-antibody immunoprecipitates and samples were heated to 95° C. for 5 minutes before running on SDS-PAGE. Actigel-antibody immunoprecipitates were washed a further 2 times in PBS prior to addition of 50 ul 0.1 M Glycine, pH 2.5. Samples were then agitated at room temperature for 10 minutes. Eluted proteins were recovered after centrifugation and resolved by SDS-PAGE. In all experiments 20 μL immunoprecipitate input material and 0.5 ng recombinant renalase positive control (RV11) were also loaded onto the gel.
In the example where a Protein G-mediated immunoprecipitation was used the western primary antibody was biotinylated-Ren 28-4 followed with a neutravidin-HRP secondary probe. In all cases where no immunoprecipitating antibody was added, no renalase was detected on the Western blot. All of the 1D and 1F antibodies (monoclonal and polyclonal) were able to immunoprecipitate bacterially- or mammalian-expressed recombinant human renalase.

Experiment [3] addresses T2, RPC1 reference standard peptide.
T2 construct: Synthetic: m42 peptide antigen linked to the m28 peptide antigen
The experiment in a line: standard curve in the sandwich ELISA with m42-RNLS capture and electro-chemiluminescence detection. As to the method:
(§1) In this example, human plasma samples were pretreated as follows: To 40 μL of plasma, 20 μL of 1N Citric acid was added and the samples were incubated on a shaker for 15 min at RT. The reaction solution was neutralized by adding 40 μL of 1M Na₂HPO₄. The samples were then stored on ice and further diluted with Diluent 100 to obtain readings in linear range. Assay protocol: Renalase levels in plasma was measured using the prototype assay on the Mesoscale platform (Meso Scale diagnostics, Gaithersburg, Md., USA) which employs proprietary electro-chemiluminescence detection methods combined with patterned arrays. Standard 96-well assay plate from Mesoscale Diagnostics were coated with 40 μL of Ren 1F 42-7 (m42-RNLS) capture antibody (2 μg/mL) and incubated for 2 hours on a shaker at room temperature. Following this, 150 μL of 3% Blocker A was added and the plate incubated on a shaker for 1 hour at room temperature. The plate was then washed with 150 μL of PBST (3 times); diluted acid activated samples and calibrator was added and the plate incubated for 2 hrs at RT on a shaker. […] The plate was washed and 2× read buffer was added and the plate imaged on SQ120 (Meso Scale Discovery). The raw data was analyzed using the Discovery Workbench software. […]

Experiment [4] addresses T3, RPC2 reference standard peptide.
T3 construct: Synthetic: m42 peptide antigen linked to the m28 peptide antigen
Described as above. The method, then: as §1

T1 sequence (Q5VYX0 18-342 limits assumed): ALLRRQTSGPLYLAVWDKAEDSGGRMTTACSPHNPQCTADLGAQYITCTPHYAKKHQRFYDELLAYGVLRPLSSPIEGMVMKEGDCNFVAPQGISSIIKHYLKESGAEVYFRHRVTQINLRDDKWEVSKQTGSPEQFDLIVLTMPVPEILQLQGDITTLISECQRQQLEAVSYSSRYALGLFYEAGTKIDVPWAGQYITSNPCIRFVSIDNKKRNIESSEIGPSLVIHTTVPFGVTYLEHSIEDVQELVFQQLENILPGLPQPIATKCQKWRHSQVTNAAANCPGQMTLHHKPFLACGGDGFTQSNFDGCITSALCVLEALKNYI
T3 sequence (peptide, as listed by the source): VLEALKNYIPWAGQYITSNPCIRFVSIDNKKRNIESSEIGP
T2 sequence (peptide, as listed by the source): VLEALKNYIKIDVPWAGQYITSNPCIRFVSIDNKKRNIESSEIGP

B1: anti-1D epitope monoclonal antibody 1D-37-10 (antibody, V domains shown)
VH: QSVEESGGRLVTPGGSLTLTCTVSGFSLSDYAIIWVRQAPGKGLEYIAIIGSSGDTFYATWAKGRFTISKTSTTVDLKMTSLTAADTATYFCAPRYAGTTDYHDAFDPWGPGTLVTVSS
VL: EVVMTQTPASMEAPMGGTVTIKCQASQNIYNYLSWYQQKPGQPPKLLVYKASTLTSGVPSRFKGSGSGTQFTLTISDLECADAATYYCQINYSIYNHYNIIFGGGTEVVVKG
notes: Rabbit monoclonal; also called Ren 1D 37-10
For the molecule B1, in experiment [1], the binding result is “binds”.

B2: anti-1D epitope monoclonal antibody 1D-28-4 (antibody, V domains shown)
VH: QSVEESGGRLVTPGTPLTLTCTVSGFSLSSFAVGWVRQAPGKGLEYIGIISSVGITRYASWAAGRFTISKTSTTVDLKITSPTTEDTATYFCARYGYSGDVNRLDLWGQGTLVTVSS
VL: AQVLTQTASPVSAAVGGTVTINCQASQSVYDNNNLAWYQQKPGQPPKQLIYGASTLASGVSSRFKGSGSGTQFTLTISGVQCDDAATYYCLGEFSCSSADCFAFGGGTEVVVKG
notes: Rabbit monoclonal from hybridoma, purified on Protein A. Used biotinylated in some assays; also called Ren 1D 28-4; Ren1D 28-4
As for B2, in experiment [1], the binding result is given as “binds”.

B3: anti-1F epitope monoclonal antibody 1F-26-1 (antibody, V domains shown)
VH: QSVKESEGGLFKPTDTLTLTCTVSGFSLSSYGVTWVRQAPGNGLEWIGLIGDRGTTFYASWAKSRSTITRNTNLNTVTLKMTRLTAADTATYFCARGSGYGARIWGPGTLVTVSS
VL: AQVLTQTPSPVSAAVGGTVTINCQSSQSVYKNNYLAWYQQKPGQPPKLLIYETSKLASGVPPRFSGSGSGTQFTLTISSVQCDDAATYYCQGGYSGVDFMAFGGGTEVVVKG
notes: Rabbit monoclonal; Used biotinylated as detection antibody in the sandwich ELISAs; also called Ren 1F 26-1
B3: the binding result in experiment [2] is on record as “binds”.

B4: anti-1F epitope monoclonal antibody 1F-42-7 (antibody, V domains shown)
VH: QSVKESEGGLFKPTDTLTLTCTVSGFSLTTYGVTWVRQAPGNGLEWIGLIGDRGTTYYASWVNGRSTITRNTNLNTVTLKMTRLTAADTATYFCARGSGYGARIWGPGTLVTVAS
VL: AQVLTQTPSPMSAALGGTVTINCQSSQTVYNNNYLSWYQQKPGQPPKLLIYETSKLSSGVPPRFSGSGSGTQFTLTISSVQCDDAATYYCQGGYSGVDFMAFGGGTEVVVKG
notes: Rabbit monoclonal; also called Ren 1F 42-7; m42-RNLS
As to B4, the binding result in experiment [2], in experiment [3] and in experiment [4] was “binds” throughout.
